The results in this text go back to patent US20260109774A1 (JUNO THERAPEUTICS, published 2026).

The labels stand for the following.
B1: BCMA-16 scFv (scFv)
scFv: EVQLVQSGPEVKKPGTSVKVSCKASGFTFTSSAMQWVRQARGQRLEWIGWIVVGSGNTNYAQKFQERVTITRDMSTSTAYMELSSLRSEDTAVYYCAAAPYYDILTGYYLWGQGTLVTVSSGGGGSGGGGSGGGGSQSALTQPPSASGTPGQRVTISCSGSGSNIGSNDVSWYQQIPGTAPKLLIYWNDQRPSGVPDRFSGSKSGTSASLAISGLQSEDEADYYCASWDDSLSGWVFGGGTKLTVL
B2: BCMA-12 scFv (scFv)
scFv: EVQLVESGGGLVKPGGSLRLSCAASGFTFSDYYMSWIRQAPGKGLEWVSYISSSGSTIYYADSVKGRFTISRDNAKNSLYLQMNSLRAEDTAVYYCAKVDGPPSFDIWGQGTMVTVSSGGGGSGGGGSGGGGSQSALTQPPSVSAAPGQKVTISCSGSRSNIGNNYVSWYQQLPGTAPKLLIYDNAKRPSGIPDRFSGSKSGTSATLDIAGLQTGDEADYYCQVWDSSSDHWVFGGGTKLTVL
B3: BCMA-24 scFv (scFv)
scFv: EVQLVQSGGGLVKPGGSLRLSCAASGFTFSDYYMSWIRQAPGKGLEWVSGISWNSGSIGYADSVKGRFTISRDNAKNSLYLQMNSLRAEDTAVYYCARDLGPPYGDDAFDIWGQGTMVTVSSGGGGSGGGGSGGGGSDIVMTQSPDSLAVSLGERATINCKSSQSVLYSSNNKNYLAWYQQKPGQPPKLLIYWGSTRESGVPDRFSGSGSGTDFTLTISSLQAEDVAIYHCQQYISLPWTFGQGTKVEIK
B4: BCMA-4 scFv (scFv)
scFv: QVQLVQSGGGLVQPGRSLRLSCTASGFTFGDYAMSWFRQAPGKGLEWVGFIRSKAYGGTTEYAASVKGRFTISRDDSKSIAYLQMNSLKTEDTAVYYCAAWSAPTDYWGQGTLVTVSSGGGGSGGGGSGGGGSAIRMTQSPSSLSASLGDRVTITCRASQDIRNSLAWYQQRPGKAPKLLLSAASRLESGVPSRFSGTTSGAEYALSISSLQPEDVASYFCQQYYSLPLSFGGGTKVEIK
B5: BCMA-8 scFv (scFv)
scFv: QVQLVQSGGGLVQPGRSLRLSCTASGFTFGDYAMSWFRQAPGKGLEWVGFIRSKAYGGTTEYAASVKGRFTISRDDSKSIAYLQMNSLKTEDTAVYYCAAWSAPTDYWGQGTLVTVSSGGGGSGGGGSGGGGSDIVMTQSPDSLAVSLGERATINCKSSQSVLYSSNNKNYLAWYQQKPGQPPKLLIYWASTRESGVPDRFSGSGSGTDFTLTISSLQAEDVAVYYCQQYYSTPYTFGQGTKLEIK
B6: BCMA-44 scFv (scFv)
scFv: B5 scFv with Q1E, I135V, S161N, V162L, T233S
B7: BCMA-3 scFv (scFv)
scFv: B5 scFv with A145V, Y164H, S232T, Y235L, Q239G, L243V
B8: BCMA-46 scFv (scFv)
scFv: B5 scFv with A145V, Y164H, S232T, Y235L, Q239G, L243V
B9: BCMA-31 scFv (scFv)
scFv: B5 scFv with Q1E, I135V, N155S, Y164N, L172V, Q176K, L186V, Y188S, E244D
B10: BCMA-6 scFv (scFv)
scFv: QVQLVQSGGGLVQPGRSLRLSCTASGFTFGDYAMSWFRQAPGKGLEWVGFIRSKAYGGTTEYAASVKGRFTISRDDSKSIAYLQMNSLKTEDTAVYYCAAWSAPTDYWGQGTLVTVSSGGGGSGGGGSGGGGSDIVMTQSPSSLSVSVGERVTITCRASQSISNSLAWYKQRPGEAPKLLIHAASNVEDGVPSRFSGRGSGTVFTLAISNVQPEDFATYYCQQSHMYPPTFGGGTKVEIK
B11: BCMA-2 scFv (scFv)
scFv: EVQLVESGGGLVKPGGSLRLSCAASGFTFSDYYMSWIRQAPGKGLEWVSYISSSGSTIYYADSVKGRFTISRDNAKNSLYLQMNSLRAEDTAVYYCAKVDGPPSSDIWGQGTMVTVSSGGGGSGGGGSGGGGSEIVMTQSPATLSVSPGETATLSCRASQSIKTNLAWYQQKPGQAPRLLIYAASTRATGIPDRFSGSGSGTDFTLTITRLEPEDFAVYYCQQYGSSPTFGRGTKLEIK
B12: BCMA-18 scFv (scFv)
scFv: EVQLLESGGGLVQPGGSLRLSCAASGFTFSSYWMSWHRQAPGKGPEWVAHINQDGSEKYYVDSVKGRFTISRDNAESSLYLQMNSLRAEDTAVYYCARWLAVTNWGQGTLVTVSSGGGGSGGGGSGGGGSQSVLTQPPSASGTPGQRVTISCSGSGSNIGSNDVSWYQQIPGTAPKLLIYWNDQRPSGVPDRFSGSKSGTSASLAISGLRSEDEADYYCAAWDDSLNGWVFGGGTKLTVL
B13: BCMA-7 scFv (scFv)
scFv: QVQLVQSGGGLVQPGRSLRLSCTASGFTFGDYAMSWFRQAPGKGLEWVGFIRSKAYGGTTEYAASVKGRFTISRDDSKSIAYLQMNSLKTEDTAVYYCAAWSAPTDYWGQGTLVTVSSGGGGSGGGGSGGGGSVIQLTQSPSSLSASVGDRVTITCRASQDIGDYLAWFQQRPGKAPKSLIYVASTLQSGVPSRFSGSGSGTHFTLTINSLQPEDFATYYCQQYHSHPWTFGPGTKVDIK
B14: BCMA-32 scFv (scFv)
scFv: QVQLVESGGGLVKPGGSLRLSCAASGFTFSDYYMSWIRQAPGKGLEWVSYISSSGSTIYYADSVKGRFTISRDNAKNSLYLQMNSLRAEDTAVYYCAKVDGPPSFDIWGQGTMVTVSSGGGGSGGGGSGGGGSQTVVTQPPSVSVAPGQTARITCGGNNIGSKGVHWYRQRPGQAPEVVIYDDSDRPSGVPDRFSGSNSGNTATLTVRGVEAGDEADYYCQVWDSSSDHWVFGGGTKLTVL
B15: BCMA-15 scFv (scFv)
scFv: QVQLLESGGGLVKPGGSLRLSCAASGFTFSSYGMHWVRQAPGKGLEWVAVISYDGSNKYYADSVKGRFTISRDNSKNTLYLQMNSLRAEDTAVYYCAKDQYSSSAQRADFDYWGQGTLVTVSSGGGGSGGGGSGGGGSQSVLTQPPSASGTPGQRVTISCSGSGSNIGSNDVSWYQQIPGTAPKLLIYWNDQRPSGVPDRFSGSKSGTSASLVISGLRSEDEADYYCAAWDDSLSGWVFGGGTKLTVL
B16: BCMA-11 scFv (scFv)
scFv: QVQLVQSGGGLVQPGRSLRLSCAASGFTFDDYAMHWVRRAPGKGLEWVSGISWNSGSIGYADSVKGRFTISRDNAKNSLYLQMNSLRAEDTAVYYCARDLGPDYDPDAFDIWGQGTMVTVSSGGGGSGGGGSGGGGSQLVLTQPPSASGTPGQRVTISCSGSSSNIGSNAVNWYQQLPGTAPEVLIYNSHQRPSGVPDRFSGSKSGTSASLAINGLQSEDEADYYCAAWDDSLRGYVFGTGTKLTVL
B17: BCMA-21 scFv (scFv)
scFv: EVQLVESGGGLVKPGGSLKLSCAASGFTFSDYYMSWIRQAPGKGLEWVSYISSSGSTIYYADSVKGRFTISRDNAKNSLYLQMNSLRAEDTAVYYCAKVDGGYTEDYWGQGTLVTVSSGGGGSGGGGSGGGGSQSVLTQPPSASGTPGQRVTISCSGSGSNIGSNDVSWYQQIPGTAPKLLIYWNDQRPSGVPDRFSGSKSGISASLAISGLRSEDEADYYCAAWDDSLNGYVFGTGTKVTVL
B18: BCMA-22 scFv (scFv)
scFv: EVQLVESGGGLVKPGGSLRLSCAASGFTFSDYYMSWIRQAPGKGLEWVSYISSSGSTIYYADSVKGRFTISRDNAKNSLYLQMNSLRAEDTAVYYCAKVDGDYTEDYWGQGTLVTVSSGGGGSGGGGSGGGGSQSALTQPASVSGSPGQSITISCTGSSSDVGKYNLVSWYQQPPGKAPKLIIYDVNKRPSGVSNRFSGSKSGNTATLTISGLQGDDEADYYCCSYGGSRSYVFGTGTKVTVL
B19: BCMA-40 scFv (scFv)
scFv: B18 scFv with G163S, V240L
B20: BCMA-17 scFv (scFv)
scFv: QVQLVQSGGGLVKPGGSLRLSCAASGFTFSDYYMSWIRLAPGKGLEWVSYISSSGSTIYYADSVKGRFTISRDNAKNSLYLQMNSLRAEDTAVYYCAREADSSADYWGQGTLVNVSSGGGGSGGGGSGGGGSQPVLTQPPSVSVAPGKTAMITCGGNNIGFKGVQWYQQKTGQAPVLVVYDDSDRPSGIPERFSGSNSGNTATLTISRVEAGDEADYYCQVWDSASDHWVFGGGTKLTVL
B21: BCMA-33 scFv (scFv)
scFv: B20 scFv with L39Q, S53G

Where a chain is given by its changes, count along the chain named.

The test concerns the target T1, human B-cell maturation antigen (BCMA) on cells (human, UniProt Q02223 1-184).
T1 construct: Recombinant on HEK293 or K562 cells, or endogenous on cell lines (H929, RPMI 8226, OPM2, MM1S, Daudi); also called hBCMA; huBCMA
T1 chain: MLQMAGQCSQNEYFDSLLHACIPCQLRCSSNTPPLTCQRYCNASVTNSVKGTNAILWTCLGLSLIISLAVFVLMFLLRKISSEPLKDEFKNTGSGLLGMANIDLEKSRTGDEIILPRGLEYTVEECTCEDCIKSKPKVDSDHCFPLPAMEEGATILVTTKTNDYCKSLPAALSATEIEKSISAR
The test can be described thus: flow cytometry on BCMA-expressing HEK293 cells vs control cells, crude lysate or bacterial supernatant; clone listed in Table E2. The procedure: Specific binding of resulting scFv clones to BCMA-expressing HEK293 cells, as compared to control cells not expressing BCMA, was assessed by flow cytometry either with in vitro translated crude cell lysate or with bacterially-produced supernatant.
(In general: In flow cytometry, cells or beads pass a laser one at a time.)
With B1, the binding result is “binds”.
As for B2, the entry is “binds”; as for B3, “binds”.
As to B4, the binding result is on record as “binds”.
On to B5, for which the binding result is “binds”.
As for B6, the entry is “binds”.
As to B7, the binding result is on record as “binds”.
Take B8: the binding result is on record as “binds”.
As for B9, the entry is “binds”.
For B10, the binding result was “binds”.
On to B11, for which the binding result was “binds”.
B12: the binding result is “binds”.
As for B13, the entry is “binds”; as for B14, “binds”.
Take B15: the binding result is recorded as “binds”.
For B16 the value was “binds”.
Consider B17, for which the binding result is reported as “binds”.
On to B18, for which the binding result was “binds”.
Regarding B19, the binding result is recorded as “binds”.
For the molecule B20, the binding result is on record as “binds”.
Regarding B21, the binding result was “binds”.
